Measurements reported in patent publication US9540424B2, “Serum albumin binding molecules” (BRISTOL-MYERS SQUIBB COMPANY, priority 2010, dated 2017).

Experiments:
[1] = system: HEK cells stably expressing human β-klotho; test: HEK β-Klotho pERK 1/2 assay; assay type: cell-based; settings: same dilutions as in parental HEK cells
Experimental: FGF21 induces ERK phosphorylation in the presence of β-klotho. Accordingly, the present HEK-β-klotho assay system was constructed to examine the functional activity of the FGF21-SABA fusions in vitro. Specifically, in vitro activity, potency (EC50) and efficacy (as a percentage of maximal activity observed from an FGF21 molecule that is not fused to a SABA), were determined for the SABA1-FGF21v1 (SEQ ID NO: 132) fusion protein, as measured in the HEK β-Klotho expressing stable cell pERK 1/2 assay using the non-fused His-tagged FGF21 (“FGFv1”; SEQ ID NO: 125) as a comparator.
A HEK cell line stably expressing human β-klotho was constructed. The human β-klotho construct encoded the full length protein under the control of a CMV promoter with a C-terminal FLAG tag. HEK 293 cells were transfected with the linearized cDNA using Lipofectamine 2000 (Invitrogen catalog #11668027) following the manufactures protocol using standard techniques. Positive clones were isolated after 14 days of selection in 600 ug/ml (Invitrogen catalog #10131) of geneticin in Dulbecco's Modified Eagle Medium with high glucose containing L-Glutamine, Hepes (Invitrogen catalog #12430054) and 10% FBS (HyClone catalog # SH30071). Positive stable clones were further characterized by Western Blot analysis and p-ERK activation by AlphaScreen (Perkin Elmer catalog # TGRES50K) analysis.
HEK cells stably expressing human β-klotho were plated at 20,000 cells/well in 96 well tissue culture plates in DMEM high glucose media (Gibco) containing 10% (v/v) FBS (Hyclone) and 600 μg/ml G418 (Gibco). The following day, the media was removed and replaced with DMEM high glucose media without serum and the cells were incubated overnight. The morning of the third day the serum free media was removed and the cells were incubated for a total of seven minutes with dilutions of the proteins made in PBS containing 3% (w/v) fatty acid free human serum albumin. Dilutions were tested in triplicate, one well on each of three plates. At the end of the seven minute incubation, the protein dilutions were removed and 100 μl of 1x AlphaScreen lysis buffer (Perkin-Elmer) was added per well and allowed to incubate with shaking for approximately 10-15 minutes. The plates containing the cellular lysates were frozen at −80° C. for at least 30 minutes or until ready to assay. Four μl from each well of thawed cell lysate was analyzed for pERK 1/2 using the Surefire AlphaScreen pERK 1/2 kit (Perkin Elmer) using 384 well white Proxiplates (Perkin Elmer) following the manufacturer's directions. Plates were incubated at room temperature for two hours in the dark and then read on an Envision 2103 Multiplate reader (Perkin Elmer). Data were analyzed using Graph Pad Prism software using a non-linear regression analysis.

[2] = system: parental HEK cells, which do not express β-klotho; test: pERK 1/2 specificity assay in parental HEK cells; assay type: cell-based, human
Description: FGF1 was used as a positive control in those experiments.

MuSA [3] = target: T1, MuSA (Mus musculus, UniProt P07724); test: SPR (Biacore T100) kinetics of FGF21-SABA1 fusions: MuSA; assay type: binding, murine; set-up: purchased Sigma A3559; settings: 37° C., up to 1 uM analyte
Experimental: (§1) The binding competency and thermodynamic characterization of FGF21-SABA fusion variants to human serum albumin were performed using Isothermal Titration calorimetry on a Microcal VP-ITC instrument (Microcal Inc. Amherst Mass., USA). […] The detailed experimental conditions are described below.
(§2) For the calorimetry assay, the FGF21-SABA variant SABA1-FGF21v1 (SEQ ID NO: 132) was used. […] For the SPR studies, SABA1-FGF21v1 and SABA1-FGF21v3 (SEQ ID NO: 134) were examined.
(§3) Serum albumins were dissolved in PBS buffer (10 mM sodium phosphate, 130 mM sodium chloride, pH 7.1) to a concentration of 10 mg/ml, and subsequently diluted to 8-10 μg/ml in 10 mM sodium acetate pH 5.0 for immobilization. Serum albumins were immobilized on a Series S CMS sensor chip using standard ethyl(dimethylaminopropyl) carbodiimide (EDC)/N-hydroxysuccinimide (NHS) chemistry in HBS-EP+ running buffer at 25° C., following general manufacturer guidelines. Flow cell 1 was activated with EDC/NHS and blocked with ethanolamine. […] Kinetic experiments were performed in PBS buffer containing 0.05% tween-20 (running buffer) at either 25° C. or 37° C. […] These samples were injected across flow cells 1-4 for 300 s, with a 420 s dissociation time, at flow rates of 30 μl/min or 60 μl/min to check for mass transfer limitation. All surfaces were regenerated with 2 pulses of 10 mM glycine pH 2.0 at 30 μl/min for 30 s. Raw sensograms were “double-referenced” by subtracting flow cell 1 data from flow cell 2, 3 or 4 data, and then subtracting a separate buffer cycle from each sensogram. The double-referenced sensogram data was fitted to a 1:1 Langmuir model using Biacore T100 Evaluation software version 2.0.2 to determine the association rate constant (ka), the dissociation rate constant (kd), and the equilibrium dissociation constant (KD).

CySA = target: T2, CySA (Macaca fascicularis, UniProt A2V9Z4); test: SPR (Biacore T100) kinetics of FGF21-SABA1 fusions: CySA; assay type: binding, cynomolgous monkey; settings: 37° C.
T2 construct: purchased Equitech-Bio CMSA
Experimental: as §1, §2, §3

[4] = Pharmacokinetics of His-tagged FGF21 and SABA-FGF21 fusions in monkeys; assay type: in vivo, cynomolgus monkeys; settings: monkeys
Experimental: Various in vivo studies were conducted in mice and monkeys to characterize the pharmacokinetics of His-tagged FGF21 and SABA1-FGF21v1. An ELISA-based ligand binding assay was used to measure the His-tagged FGF21 and SABA1-FGF21v1 in all mouse and monkey plasma samples.
Following subcutaneous administration, His-tagged FGF21 was well absorbed.
Following subcutaneous administration, SABA1-FGF21v1 was well absorbed.

HSA [5] = target: T3, HSA (Homo sapiens, UniProt P02768); test: SPR (Biacore T100) kinetics of FGF21-SABA1 fusions: HSA; assay type: binding; settings: 37° C.
Experimental: as §1, §2, §3

Human serum albumin = target: T4, Human serum albumin (Homo sapiens, UniProt P02768); test: SPR (ProteOn XPR36) binding of SABA-neuropeptide fusions to Human Serum Albumin; settings: 25° C., average of two experiments
T4 construct: purchased Novozymes Recombumin
Experimental: Surface Plasmon Resonance (SPR) is a direct binding technique by which molecular interactions can be observed in real time. For these experiments, SPR binding studies were performed using a ProteOn XPR36 instrument (BioRad Laboratories). The running buffer, phosphate buffered saline 0.05% Tween 20 pH 7.4, was purchased from Teknova (cat #P1192) and all experiments were run at 25° C. Human serum albumin was directly immobilized on a BioRad GLC chip via amine coupling as per manufacturer's guidelines using amine coupling reagents purchased from BioRad Laboratories. Human serum albumin was purchased from Novozymes (Recombumin™). About 5000 resonance units (RU) of human serum albumin were immobilized onto 4 separate lanes of the GLC chip surface. For each analyte, five concentrations ranging from 15.6 nM to 250 nM were injected over the surface at 30 μl/min for 240 seconds. The dissociation was monitored for 600 seconds. The surface was regenerated with 100 mM HCl. The resultant data were fitted to a Langumuir 1:1 binding model using the ProteOn Manager Software. The experiment was repeated with a different concentration range. In this second experiment, 5 concentrations ranging from 500 nM to 32 nM were injected over the surfaces, and the data analyzed as above. The KD is the disassociation constant. Smaller numbers indicate tighter binding to serum albumin. Molecules covalently attached to SABA that bind to serum albumin display longer in vivo pharmokinetic half-lives, as described earlier with respect to SABA-FGF-21 fusions.

RhSA = RhSA (Macaca mulatta, UniProt Q28522); test: Biacore kinetics of SABAs on immobilized serum albumin: RhSA; assay type: binding, rhesus
Experimental: (§4) In addition, binding to albumin was carried out under various pH conditions ranging from pH 5.5 to pH 7.4.

MuSA [6] = target: T1, MuSA; test: Biacore kinetics of SABAs on immobilized serum albumin: MuSA; assay type: binding
[7] = Analytical size exclusion chromatography (SEC) of SABAs; assay type: physicochemical; settings: midscaled material
Experimental: Size exclusion chromatography (SEC) was performed on the SABAs resulting from the HTPP. SEC of HTPP derived material was performed using a Superdex 200 5/150 or Superdex 75 5/150 column (GE Healthcare) on an Agilent 1100 or 1200 HPLC system with UV detection at A214 nm and A280 nm and with fluorescence detection (excitation=280 nm, emission=350 nm). A buffer of 100 mM sodium sulfate, 100 mM sodium phosphate, 150 mM sodium chloride, pH 6.8 at appropriate flow rate of the SEC column employed. Gel filtration standards (Bio-Rad Laboratories, Hercules, Calif.) were used for molecular weight calibration.
Midscale expression and purification yielded highly pure and active Adnectins™ that were expressed in a soluble form and purified from the soluble fraction of the bacterial cytosol.
Standard size exclusion chromatography (SEC) was performed on the candidate SABAs resulting from the midscale process. SEC of midscaled material was performed using a Superdex 200 10/30 or on a Superdex 75 10/30 column (GE Healthcare) on an Agilent 1100 or 1200 HPLC system with UV detection at A214 nm and A280 nm and with fluorescence detection (excitation=280 nm, emission=350 nm). A buffer of 100 mM sodium sulfate, 100 mM sodium phosphate, 150 mM sodium chloride, pH 6.8 at appropriate flow rate of the SEC column employed. Gel filtration standards (Bio-Rad Laboratories, Hercules, Calif.) were used for molecular weight calibration.

[8] = Half-life of HSA and of SABA1-4 with or without HSA in mice (ELISA, WinNonlin); assay type: in vivo, Ncr nude female mice
Experimental: The pharmacokinetic parameters of each Adnectin™ were determined using non-compartmental modeling with WinNonlin software.

HSA [9] = target: T3, HSA
Experimental: as §4

[10] = intravenous, His-tagged FGF21 0.5 mg/kg, SABA1-FGF21v1 0.08 mg/kg

T1 sequence (P07724 25-608): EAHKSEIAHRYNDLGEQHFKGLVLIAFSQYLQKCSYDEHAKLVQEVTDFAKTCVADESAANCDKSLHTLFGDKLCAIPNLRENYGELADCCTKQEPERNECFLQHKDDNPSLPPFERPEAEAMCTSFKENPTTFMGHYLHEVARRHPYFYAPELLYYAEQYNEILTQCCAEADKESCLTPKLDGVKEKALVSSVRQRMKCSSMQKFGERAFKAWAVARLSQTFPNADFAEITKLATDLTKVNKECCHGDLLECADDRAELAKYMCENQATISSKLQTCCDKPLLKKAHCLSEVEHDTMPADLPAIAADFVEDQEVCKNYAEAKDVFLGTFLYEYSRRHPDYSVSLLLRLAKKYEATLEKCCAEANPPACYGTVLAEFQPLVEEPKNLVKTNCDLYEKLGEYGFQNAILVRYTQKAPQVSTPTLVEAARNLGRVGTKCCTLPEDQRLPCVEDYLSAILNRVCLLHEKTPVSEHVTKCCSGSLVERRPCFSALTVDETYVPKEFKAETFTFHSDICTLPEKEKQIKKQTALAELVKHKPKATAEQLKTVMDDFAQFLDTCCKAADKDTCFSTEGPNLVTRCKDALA
T2 sequence (A2V9Z4 25-608): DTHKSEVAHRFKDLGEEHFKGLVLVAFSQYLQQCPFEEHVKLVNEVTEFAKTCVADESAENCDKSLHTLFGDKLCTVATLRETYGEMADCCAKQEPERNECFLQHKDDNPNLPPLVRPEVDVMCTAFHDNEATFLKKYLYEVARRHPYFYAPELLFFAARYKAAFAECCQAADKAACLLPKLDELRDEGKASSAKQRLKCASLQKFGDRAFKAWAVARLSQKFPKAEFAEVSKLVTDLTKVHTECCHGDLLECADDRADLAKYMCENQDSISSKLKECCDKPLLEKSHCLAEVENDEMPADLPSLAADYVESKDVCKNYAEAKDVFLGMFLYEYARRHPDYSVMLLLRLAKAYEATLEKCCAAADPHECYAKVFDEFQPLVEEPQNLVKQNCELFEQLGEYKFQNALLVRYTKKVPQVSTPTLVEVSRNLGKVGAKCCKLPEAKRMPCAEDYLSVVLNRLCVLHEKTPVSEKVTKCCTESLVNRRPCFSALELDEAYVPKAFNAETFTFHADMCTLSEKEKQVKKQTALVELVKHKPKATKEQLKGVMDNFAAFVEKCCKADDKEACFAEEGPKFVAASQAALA
Chain of RhSA (Q28522 17-600): as the sequence (A2V9Z4 25-608) above

With “FGF1: positive control in the pERK specificity assays [reference compound]” the “activity in HEK β-klotho stable cells (specificity experiment)” value [1] was “showed activity” and the “stimulation of pERK 1/2 levels in parental HEK cells” value [2] was “did”.

B1: SABA1-FGF21v3: SABA1-FGF21 fusion, SEQ ID NO: 134; 299 aa; DNA SEQ ID NO: 177 (protein)
chain: MGVSDVPRDLEVVAATPTSLLISWHSYYEQNSYYRITYGETGGNSPVQEFTVPYSQTTATISGLKPGVDYTITVYAVYGSKYYYPISINYRTEIDKPSQHHHHHHGSGSGSGSGSGSGSPIPDSSPLLQFGGQVRQRYLYTDDAQQTEAHLEIREDGTVGGAADQSPESLLQLKALKPGVIQILGVKTSRFLCQRPDGALYGSLHFDPEACSFRELLLEDGYNVYQSEAHGLPLHLPGNKSPHRDPAPRGPARFLPLPGLPPALPEPPGILAPQPPDVGSSDPLSMVGPSQGRSPSYAS
In the case of B1, the “binding to MuSA” value (MuSA [3]; flow rate 30 μl/min) is reported as “no binding observed up”, the “binding to MuSA” value (MuSA [3]; flow rate 60 μl/min) is reported as “no binding observed up” and the “ka” value (CySA; flow rate 30 μl/min) is reported as 5310 M⁻¹ s⁻¹. The “kd” value (CySA; flow rate 30 μl/min) was 0.0117 s⁻¹, the “ka” value (CySA; flow rate 60 μl/min) was 4380 M⁻¹ s⁻¹ and the “kd” value (CySA; flow rate 60 μl/min) was 0.0136 s⁻¹. For the same molecule, the “increase of t1/2 compared to His-tagged FGF21” value [4] was ~27 fold, the “CL (total body plasma clearance, CLTp)” value [4, 10] was 2.4 mL/h/kg and the “T½ (terminal half-life)” value [4, 10] was 52.7 h. For the same molecule, the “Vdss (steady-state volume of distribution, Vss)” value [4, 10] was 0.11 L/kg, the “ka” value (HSA [5]; flow rate 30 μl/min) was 6160 M⁻¹ s⁻¹ and the “kd” value (HSA [5]; flow rate 30 μl/min) was 0.00103 s⁻¹. The “ka” value (HSA [5]; flow rate 60 μl/min) was 5870 M⁻¹ s⁻¹ and the “kd” value (HSA [5]; flow rate 60 μl/min) was 0.00107 s⁻¹.

B2: SABA1-APPv7: SEQ ID NO: 364; SABA1.7-(ED)5G-Cys conjugated to Maleimide-PEG20-PP-CONH2 (conjugate)
chain: MGVSDVPRDLEVVAATPTSLLISWHSYYEQNSYYRITYGETGGNSPVQEFTVPYSQTTATISGLKPGVDYTITVYAVYGSKYYYPISINYRTEIEDEDEDEDEDGC
modifications: Maleimide-PEG20-PP-CONH2 conjugated via Cys
With B2 the “Koff (1/s)” value (Human serum albumin) was 1.42 10^−4 1/s and the “Kon (1/Ms)” value (Human serum albumin) was 7.88 10^3 1/Ms.

B3: SABA1-PYYv7: SEQ ID NO: 344; SABA1.7-(ED)5G-Cys conjugated to Maleimide-PEG20-PYY-CONH2 (conjugate)
chain: B2 chain
modifications: Maleimide-PEG20-PYY-CONH2 conjugated via Cys
For B3, the “Koff (1/s)” value (Human serum albumin) was 2.08 10^−4 1/s and the “Kon (1/Ms)” value (Human serum albumin) was 9.29 10^3 1/Ms.

B4: SABA2.1: His-tagged SABA2 sequence (protein)
chain: MGVSDVPRDLEVVAATPTSLLISWPKYDKTGHYYRITYGETGGNSPVQEFTVPTRQTTATISGLKPGVDYTITVYAVSKDDYYPHEHRPISINYRTEIDKPSQHHHHHH
modifications: His6 tag
For B4, the “cross reaction with RhSA” value (RhSA) was “cross reacted”, the “cross reaction with MuSA” value (MuSA [6]) was “did not cross react” and the “SEC Dimer (%)” value [7] was 9%. The “SEC Monomer (%)” value [7] was 91%, the “PK (T½) Mice” value ([8]; co-injected with HSA (3-4 molar excess), tail vein) was 2.8 h and the “half-life in mice plasma” value ([8]; injected without HSA) was 0.24 h. For the same molecule, the “increase in half life when co-injected with HSA” value ([8]; with HSA vs without HSA, mice) was ~12 fold and the “Comments: binding in dependence of pH” value (HSA [9]) was “Loss of binding at pH ≦6.5”.
